Test results as given in PMC12095920.

Legend:
[1] = target: tau^4R construct (four microtubule-binding repeat domains of human tau) (human) (UniProt P10636)
[2] = target: tau^4R construct (four microtubule-binding repeat domains of human tau) (human), P10636
tau^4R construct (four microtubule-binding repeat domains of human tau) (human), P10636, sequence (P10636 561-689): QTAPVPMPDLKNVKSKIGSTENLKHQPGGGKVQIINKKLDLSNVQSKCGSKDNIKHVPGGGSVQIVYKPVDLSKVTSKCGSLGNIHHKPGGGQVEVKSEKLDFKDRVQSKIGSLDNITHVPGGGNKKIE

| ThT fluorescence after 23 h in the presence of apiCCT3, relative to tau^4R alone (not shown) [1] | ThT fluorescence after 23 h in the presence of apiCCT7, relative to tau^4R alone [2] | Molecule |
| --- | --- | --- |
| 2.5% |  | apical domain of human CCT3 (from UniProt P49368 223-383) (domain or fragment) |
|  | 30% | apical domain of human CCT7, Q99832 207-376 (domain or fragment) DSQLVAGVAFKKTFSYAGFEMQPKKYHNPKIALLNVELELKAEKDNAEIRVHTVEDYQAIVDAEWNILYDKLEKIHHSGAKVVLSKLPIGDVATQYFADRDMFCAGRVPEEDLKRTMMACGGSIQTSVNALSADVLGRCQVFEETQIGGERYNFFTGCPKAKTCTFILRG |
